Positions count from the first letter of the chain named. Read-outs that look alike come from different tables or passages of the source. Each block holds one binder with its values, some of them ahead of it.
Tests used:
[1] = target: T1, recombinant soluble human IL-6 receptor (SR344) (human, UniProt P08887 20-344); test: Biacore T100, biotinylated SR344 immobilized via streptavidin (membrane-type IL-6 receptor model), antibody as analyte; ratio of kd at pH 5.8 to pH 7.4
T1 construct: In the 'membrane-type IL-6 receptor' Biacore assays the same SR344 was biotinylated and immobilized via streptavidin; also called soluble IL-6 receptor; membrane-type IL-6 receptor (as biotinylated SR344 immobilized on the sensor chip)
T1 sequence (looked up): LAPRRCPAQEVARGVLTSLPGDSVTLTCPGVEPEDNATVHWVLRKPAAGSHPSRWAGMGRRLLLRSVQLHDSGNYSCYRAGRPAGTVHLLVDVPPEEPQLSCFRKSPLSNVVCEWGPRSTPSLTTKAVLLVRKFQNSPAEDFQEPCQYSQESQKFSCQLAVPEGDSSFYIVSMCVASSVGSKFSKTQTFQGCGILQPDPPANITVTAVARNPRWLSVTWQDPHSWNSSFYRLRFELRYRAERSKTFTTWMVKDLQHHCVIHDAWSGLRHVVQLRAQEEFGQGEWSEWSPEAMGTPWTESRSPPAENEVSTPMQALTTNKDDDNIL
Experimental: (§1) Binding to the membrane-type IL-6 receptor was evaluated by evaluating binding to the IL-6 receptor immobilized on a sensor chip. SR344 was biotinylated in accordance with a method known among persons with ordinary skill in the art, and the biotinylated SR344 was immobilized on the sensor chip via streptavidin using the affinity between streptavidin and biotin. All the measurements were carried out at 37° C. The mobile phase buffer was 10 mM MES (pH 5.8), 150 mM NaCl and 0.05% Tween 20.
(§2) The pH-dependently-binding clones were injected under the condition of pH 7.4 to allow them to bind to SR344, and then, the pH-dependent dissociation of each clone at the pH of the mobile phase, pH 5.8, was observed. The results are shown in FIG. 21 (results for Fv1-M71, Fv1-M73, Fv3-M71, and Fv3-M73 are shown in FIG. 21, while results for other clones are shown in FIGS. 17 and 19). Analyses were carried out in the same manner as in Example 10 and the pH dependencies of the dissociation rate constants of all of the eleven types of clones are shown in Table 12.

[2] = target: T1, recombinant soluble human IL-6 receptor …; test: Biacore T100, antibody captured on protein A/G, SR344 as analyte, 37C; ratio of kd at pH 5.8 to pH 7.4
Experimental: (§3) Kinetic analysis of antigen-antibody reactions at pH 7.4 and pH 5.8 was carried out using Biacore T100 (GE Healthcare) for the four types of antibodies prepared: WT-IgG1, H54/L28-IgG1, H170/L82-IgG1, and Fv4-IgG1(buffer: 10 mM MES (pH 7.4 or pH 5.8), 150 mM NaCl, 0.05% Surfactant-P20). The antibodies were bound to a sensor chip on which recomb-protein A/G (Pierce) was immobilized by amine coupling, and SR344 adjusted to an appropriate concentration was injected therein as an analyte. The association with and dissociation from SR344 of each type of antibody were observed on a real-time basis. All the measurements were carried out at 37° C. Association rate constants kₐ (1/Ms) and dissociation rate constants kd (1/s) were calculated using Biacore T100 Evaluation Software (GE Healthcare), and dissociation constants KD (M) were calculated based on those values (Table 17).

[3] = target: T1, recombinant soluble human IL-6 receptor …; test: Biacore T100, biotinylated SR344 immobilized via streptavidin (membrane-type IL-6 receptor model), antibody as analyte; ratio of kd at pH 5.8 to pH 7.4; remark: listed apart in the source
Experimental: as §1, §2

[4] = target: T1, recombinant soluble human IL-6 receptor …; test: as above; remark: listed apart in the source
Experimental: as §1, §2

[5] = target: T1, recombinant soluble human IL-6 receptor …; test: Biacore T100, antibody captured on protein A/G, SR344 as analyte, 37C; ratio of KD at pH 5.8 to pH 7.4
Experimental: as §3

[6] = target: T1, recombinant soluble human IL-6 receptor …; test: Biacore T100, SR344 as analyte; KD(pH5.8)/KD(pH7.4) compared with WT
Experimental: (§4) Kinetic analyses of antigen-antibody reactions at pH 5.8 and pH 7.4 were carried out using Biacore T100 (GE Healthcare) on the four antibodies: humanized PM1 antibody (WT) and H3pI/L73, CLH5/L73, and H170/L82 produced in Examples 2 and 4 (buffer: 10 mM MES (pH 7.4 or pH 5.8), 150 mM NaCl, and 0.05% Tween 20). Various antibodies were bound onto a sensor chip immobilized with recomb-protein A/G (Pierce) by amine coupling. SR344 adjusted to concentrations of 9.8 to 400 nM was injected to the chip as an analyte. […] All the measurements were carried out at 37° C. Association rate constants kₐ (1/Ms) and dissociation rate constants kd (1/s) were calculated using Biacore T100 Evaluation Software (GE Healthcare), and dissociation constants KD (M) were calculated on the basis of those values (Table 5). Moreover, the ratio of the affinities at pH 5.8 and pH 7.4 were calculated for each clone to evaluate pH-dependent binding. All the measurements were carried out at 37° C.

[7] = target: T1, recombinant soluble human IL-6 receptor …; test: Biacore T100, antibody captured on protein A/G, SR344 as analyte, 37C; ratio of KD at pH 5.8 to pH 7.4; remark: listed apart in the source
Experimental: as §4

human IL-6 (Toray) [8] = target: T2, human IL-6 (Toray) (human, UniProt P05231 30-212); test: Biacore T100, antibody captured on protein A/G, human IL-6 as analyte, 37C; ratio of KD at pH 5.5 to pH 7.4
T2 construct: also called human interleukin-6
Experimental: (§5) Kinetic analysis of antigen-antibody reactions at pH 5.5 and pH 7.4 was carried out using Biacore T100 (GE Healthcare) for the three types of antibodies prepared as mentioned above: Anti-IL6 wild type, Anti-IL6 clone 1, and Anti-IL-6 clone 2 (buffer: DPBS(−) (pH 7.4 or pH 5.5), 150 mM NaCl). The antibodies were bound to a sensor chip on which recomb-protein A/G (Pierce) was immobilized by amine coupling, and then human IL-6 (Toray) adjusted to an appropriate concentration was injected on the chip as an analyte. All the measurements were carried out at 37° C. Association rate constants kₐ (1/Ms) and dissociation rate constants kd (1/s) were calculated using Biacore T100 Evaluation Software (GE Healthcare), and dissociation constants KD (M) were calculated based on those values (Table 14). Furthermore, the ratio of affinity at pH 5.5 and pH 7.4 was calculated for each clone to evaluate the pH-dependent binding.

human IL-6 (Toray) [9] = target: T2, human IL-6 (Toray); test: Biacore T100, human IL-6 as analyte; KD(pH 5.5)/KD(pH 7.4) compared with Anti-IL6 wild type
Experimental: as §5

kd(pH 5.8)/kd(pH 7.4) [1]: 5.56
kd(pH 5.8)/kd(pH 7.4) [2]: 38.8
kd(pH 5.8)/kd(pH 7.4) [3]: 5.56
kd(pH 5.8)/kd(pH 7.4) [4]: 5.56
KD(pH5.8)/KD(pH7.4) [5]: 27.3
B1: Fv4-IgG1 (antibody)
heavy: not shown
light: DIQMTQSPSSLSASVGDSVTITCQASTDISSHLNWYQQKPGKAPELLIYYGSHLLSGVPSRFSGSGSGTDFTFTISSLEAEDAATYYCGQGNRLPYTFGQGTKVEIERTVAAPSVFIFPPSDEQLKSGTASVVCLLNNFYPREAKVQWKVDNALQSGNSQESVTEQDSKDSTYSLSSTLTLSKADYEKHKVYACEVTHQGLSSPVTKSFNRGEC
notes: also called VH3-IgG1/VL3-CK

kd(pH 5.8)/kd(pH 7.4) [1]: 7.18
kd(pH 5.8)/kd(pH 7.4) [4]: 7.18
B3: Fv2-IgG1 (antibody, V domains shown)
VH: QVQLQESGPGLVKPSETLSLTCAVSGYSISHDHAWSWVRQPPGEGLEWIGHISYSGITNYNPHLQDRVTISRDTSKNQFSLKLSSVTAADTAAYYCARFLARITAHDHWGEGTLVTVSS
VL: DIQMTQSPSSLSASVGDSVTITCQASQDISSHLNWYQQKPGKAPELLIYYGSHLHSGVPSRFSGSGSGTDFTFTISSLEAEDAATYYCGQGNRLPYTFGQGTKVEIE
notes: also called VH1-IgG1/L82

kd(pH 5.8)/kd(pH 7.4) [1]: 1
kd(pH 5.8)/kd(pH 7.4) [2]: 2.9
KD(pH5.8)/KD(pH7.4) [7]: 2.4
kd(pH 5.8)/kd(pH 7.4) [4]: 1
KD(pH5.8)/KD(pH7.4) [5]: 1.6
B8: humanized PM1 antibody (wild type, WT) (antibody, human IgG1, kappa, V domains shown)
VH: QVQLQESGPGLVRPSQTLSLTCTVSGYSITSDHAWSWVRQPPGRGLEWIGYISYSGITTYNPSLKSRVTMLRDTSKNQFSLRLSSVTAADTAVYYCARSLARTTAMDYWGQGSLVTVSS
VL: DIQMTQSPSSLSASVGDRVTITCRASQDISSYLNWYQQKPGKAPKLLIYYTSRLHSGVPSRFSGSGSGTDFTFTISSLQPEDIATYYCQQGNTLPYTFGQGTKVEIKR
notes: Tested as IgG1; also called WT-IgG1; H(WT)/L(WT)

Further lines, the binder ahead of its results:

B2: H3pI/L73 (antibody, IgG1, V domains shown)
VH: B3 VH with Y27H, W35H, H51Y, H63S, Q65K, D66G, F99S, I103T, H106M, H108Y
VL: B3 VL with D28H
notes: antibody expressed as IgG1; also called H3pI/L73-IgG1; H3pl/L73
pH-dependent binding (affinity ratio) relative to WT [6]: 15 times
kd(pH 5.8)/kd(pH 7.4) [1]: 2.59
KD(pH5.8)/KD(pH7.4) [7]: 41.3
kd(pH 5.8)/kd(pH 7.4) [4]: 2.59

B4: H54/L28-IgG1 (antibody, V domains shown)
VH: B3 VH with H31D, H33Q, H51Y, H63S, Q65K, D66G, F99S, I103T, H106M, H108Y
VL: B3 VL with H32Y, H53E, G89Q, R93S
notes: tested as IgG1
kd(pH 5.8)/kd(pH 7.4) [2]: 2
KD(pH5.8)/KD(pH7.4) [5]: 0.7

B5: Anti-IL6 wild type (antibody, human IgG1, kappa, V domains shown)
VH: EVQLVESGGKLLKPGGSLKLSCAASGFTFSSFAMSWFRQSPEKRLEWVAEISSGGSYTYYPDTVTGRFTISRDNAKNTLYLEMSSLRSEDTAMYYCARGLWGYYALDYWGQGTSVTVSS
VL: QIVLIQSPAIMSASPGEKVTMTCSASSSVSYMYWYQQKPGSSPRLLIYDTSNLASGVPVRFSGSGSGTSYSLTISRMEAEDAATYYCQQWSGYPYTFGGGTKLEIKR
notes: also called WT (anti-IL-6 antibody of WO 2004/039826)
KD(pH 5.5)/KD(pH 7.4) (human IL-6 (Toray) [8]): 0.8

B6: Anti-IL6 clone 1 (antibody, human IgG1, kappa, V domains shown)
VH: B5 VH with F32H, Y60H, D62H, Y103H
VL: B5 VL with L53H, Q89H, Y93H
notes: H chain (c1) and L chain (c1)
KD(pH 5.5)/KD(pH 7.4) (human IL-6 (Toray) [8]): 10.3
pH-dependent binding ability relative to WT (human IL-6 (Toray) [9]): 10 times

B7: Anti-IL-6 clone 2 (antibody, human IgG1, kappa, V domains shown)
VH: B5 VH with F32H, Y60H, D62H, Y103H
VL: B5 VL with N52H, L53H, Q89H, Y93H
notes: H chain (c1) and L chain (c2)
KD(pH 5.5)/KD(pH 7.4) (human IL-6 (Toray) [8]): 13.5
pH-dependent binding ability relative to WT (human IL-6 (Toray) [9]): 10 times
